Values quoted from earlier work in publication PMC3046808.

Biological target: Gag (Human immunodeficiency virus 1) (UniProt O93182)

Sequence of Gag (O93182 2-500): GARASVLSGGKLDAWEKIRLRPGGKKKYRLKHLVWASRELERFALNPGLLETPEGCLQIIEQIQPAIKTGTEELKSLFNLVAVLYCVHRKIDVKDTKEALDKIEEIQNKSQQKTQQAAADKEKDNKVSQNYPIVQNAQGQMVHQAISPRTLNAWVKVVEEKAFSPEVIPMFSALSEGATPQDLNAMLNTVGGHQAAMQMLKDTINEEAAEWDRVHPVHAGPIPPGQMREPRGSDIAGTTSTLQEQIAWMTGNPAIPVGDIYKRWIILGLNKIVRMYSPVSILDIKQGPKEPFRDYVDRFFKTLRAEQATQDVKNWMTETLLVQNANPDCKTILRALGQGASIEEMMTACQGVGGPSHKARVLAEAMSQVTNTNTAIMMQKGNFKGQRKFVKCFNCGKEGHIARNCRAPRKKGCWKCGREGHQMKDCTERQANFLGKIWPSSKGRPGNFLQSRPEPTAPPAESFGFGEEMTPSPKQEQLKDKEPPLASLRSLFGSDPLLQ

Gag (from UniProt O93182)
Kd: 3.9 µM
